Changes are numbered by the printed parent chain.

In test [1] the target is Dimeric Human Ang-2FD conjugated to human IgG1 (human). As to the kind of experiment: SPR, human IgG1 antibody captured. A general note: Surface plasmon resonance follows binding to a sensor surface in real time, without labels.
For test [2], the target named is Dimeric Monkey Ang-2FD conjugated to human IgG1 (monkey (Macca fascicularis)). As to the kind of experiment: SPR, human IgG1 antibody captured.
Test [3] concerns the target Dimeric Mouse Ang-2FD conjugated to human IgG1 (mouse (Mus musculus)). As to the kind of experiment: SPR, human IgG1 antibody captured.
In test [4] the target is Dimeric Human Ang-2FD conjugated to human IgG1 (human). As to the kind of experiment: SPR, antibody captured, room temperature.
The target of test [5] is Dimeric Monkey Ang-2FD conjugated to human IgG1 (monkey (Macca fascicularis)). As to the kind of experiment: SPR, antibody captured, room temperature.
Test [6] has as its target Dimeric Human Ang-2FD conjugated to human IgG1 (human). As to the kind of experiment: ELISA, 16.67 nM antibody, Ang-2FD-hFc binding to coated hTie-2-mFc. On the technique in general: An ELISA detects its analyte on a solid surface through an enzyme-linked reagent.
Test [7] addresses Dimeric Monkey Ang-2FD conjugated to human IgG1 (monkey (Macca fascicularis)). The test is described as above.
Test [8] has as its target Dimeric Mouse Ang-2FD conjugated to human IgG1 (mouse (Mus musculus)). Described as above.
Test [9] shares this target. As to the kind of experiment: SPR, antibody captured, room temperature.

Chain of Dimeric Mouse Ang-2FD conjugated to human IgG1 (mouse (Mus musculus)) (chain, as listed by the source limits assumed): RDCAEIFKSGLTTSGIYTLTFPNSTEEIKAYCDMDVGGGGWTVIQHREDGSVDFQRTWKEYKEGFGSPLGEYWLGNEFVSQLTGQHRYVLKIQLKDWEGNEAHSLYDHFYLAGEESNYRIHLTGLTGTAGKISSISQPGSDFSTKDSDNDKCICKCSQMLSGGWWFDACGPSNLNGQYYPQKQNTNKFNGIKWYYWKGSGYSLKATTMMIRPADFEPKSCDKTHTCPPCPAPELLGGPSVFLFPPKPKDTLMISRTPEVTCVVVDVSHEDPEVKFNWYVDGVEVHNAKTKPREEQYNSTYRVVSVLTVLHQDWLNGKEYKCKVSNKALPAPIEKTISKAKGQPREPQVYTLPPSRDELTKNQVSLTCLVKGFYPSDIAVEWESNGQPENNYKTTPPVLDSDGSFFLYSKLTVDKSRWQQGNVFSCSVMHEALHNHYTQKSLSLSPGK
Chain of Dimeric Human Ang-2FD conjugated to human IgG1 (human) (chain, as listed by the source limits assumed): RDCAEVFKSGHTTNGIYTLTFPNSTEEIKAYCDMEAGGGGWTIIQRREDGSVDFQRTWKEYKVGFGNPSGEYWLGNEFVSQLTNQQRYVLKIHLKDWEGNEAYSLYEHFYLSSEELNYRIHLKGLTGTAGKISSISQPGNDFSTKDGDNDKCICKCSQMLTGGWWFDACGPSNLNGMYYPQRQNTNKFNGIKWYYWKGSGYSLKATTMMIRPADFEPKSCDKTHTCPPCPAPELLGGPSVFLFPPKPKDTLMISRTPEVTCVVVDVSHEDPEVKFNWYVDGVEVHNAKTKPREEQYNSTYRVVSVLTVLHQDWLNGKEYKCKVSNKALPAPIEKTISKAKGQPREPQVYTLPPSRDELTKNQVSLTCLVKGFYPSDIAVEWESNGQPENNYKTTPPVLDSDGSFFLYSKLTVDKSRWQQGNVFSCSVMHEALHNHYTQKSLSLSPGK
Chain of Dimeric Monkey Ang-2FD conjugated to human IgG1 (monkey (Macca fascicularis)) (chain, as listed by the source limits assumed): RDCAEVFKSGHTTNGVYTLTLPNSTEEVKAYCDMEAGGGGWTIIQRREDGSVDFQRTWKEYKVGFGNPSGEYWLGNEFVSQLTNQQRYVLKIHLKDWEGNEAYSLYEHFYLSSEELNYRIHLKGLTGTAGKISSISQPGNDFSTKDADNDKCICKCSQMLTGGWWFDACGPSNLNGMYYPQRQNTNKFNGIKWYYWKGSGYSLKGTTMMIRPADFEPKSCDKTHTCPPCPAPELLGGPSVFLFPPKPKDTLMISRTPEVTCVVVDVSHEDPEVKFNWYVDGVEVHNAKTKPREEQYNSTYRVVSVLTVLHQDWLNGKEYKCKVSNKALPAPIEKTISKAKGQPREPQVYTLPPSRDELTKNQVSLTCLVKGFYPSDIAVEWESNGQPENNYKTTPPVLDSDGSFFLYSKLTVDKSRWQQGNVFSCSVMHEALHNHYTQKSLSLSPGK

B1: H1H750N (antibody, V domains shown)
VH: QVKLVESGGGVVQPGRSLRVSCAASGFTFSSYGMHWVRQAPGKGLEWLAIIWYDGDNKYYSDSVKGRFTISRDNSKNTLYLQMNSLRAEDTAEYYCVRDASIASRFLDYWGQGTLVTVSS
VL: DIQMTQSPSSLSASIGDRVTITCRATQDINNYLAWFQQKPGKAPKSLIYATSNLQSGVPSKFSGSGSGTDYTLTISSLQPEDFSTYYCQQYHSYPLTFGGGTKVEIK
As for B1, the equilibrium dissociation constant (Kd) (in general, a measure of binding affinity in units of concentration) in test [1] amounted to 0.164 nM; in test [2] it was 0.199 nM; in test [3], 0.218 nM. Moreover, the values for the T1/2 in test [1], in test [2] and in test [3] were 127 min, 244 min and 121 min, respectively.

B2: H2M750N (antibody, V domains shown)
VH: B1 VH
VL: B1 VL
As for B2, the equilibrium dissociation constant (Kd) in [4] was determined as 0.362 nM; in test [5], 1.47 nM. Also, the T1/2 came to 32.2 min in test [4] and 23 min in test [5]. For the same molecule, the Percent Blocking of Ang-2FD Binding to Tie-2 is 99.4% in test [6], 97.4% in test [7] and 53.7% in [8].

B3: H1H743N (antibody, V domains shown)
VH: EVQLLESGGGLVQPGGSLRLSCAASGFTFRKYAMSWVRQAPGKGLEWVSVISVSGGNTYYADSVKGRFTISRDNSKNTLYLQLNSLRAEDTAVYYCAKDLTDIVLMVYVDYWGQGTLVTVSS
VL: DIQMTQSPSSVSASVGDRVTITCRASQDIDRWLAWYQQKPGKAPKLLIYAASSLQSGVPSRFSGSGSGTDFTLTISTLQPEDFATYYCQQANSLPFTFGGGTKVEIK
B3: the dissociation constant (Kd) in test [1] amounted to 0.0882 nM; in test [2], 0.0965 nM; in test [3], 0.124 nM. Further, the T1/2 in test [1] came out at 254 min; in [2], 780 min; in test [3] it was 233 min.

B4: H2M743N (antibody, V domains shown)
VH: B3 VH
VL: B3 VL
B4: the Kd in test [4] is 0.154 nM; in test [5] it was 0.234 nM; in [9] it was 0.882 nM. Besides, the T1/2 in test [4] stood at 167 min; in test [5], 169 min; in test [9] it was 195 min. The Percent Blocking of Ang-2FD Binding to Tie-2 in test [6] was found to be 99.6%; in test [7] it was 95.1%; in test [8], 98.4%.

B5: H1H742N (antibody, V domains shown)
VH: DVQLLESGGDLVQPGGSLRLSCEASGFTFRNYVMIWVRQAPGKGLEWVSGISNSGGTTHYTDSVKGRFTISRDNSKNTLYLQINSLRAEDTAVYYCAKGYLDTSLIEGNWFDPWGQGTLVTVSS
VL: NIVMTQSPLSLPVTPGEPASISCRSSQSLLHSNGFNYLNWFLQKPGQSPQLLIYLGSNRASGVPDKFSGSGSGTDFTLNINRVEAEDVGIYFCMQTLQTPLTFGGGTKVEIK
For B5, the values for the dissociation constant (Kd) in test [1], in [2] and in [3] were 0.186 nM, 0.683 nM and 0.276 nM, respectively. Further, the T1/2 in test [1] is 65 min; in test [2], 93 min; in [3], 58 min.

B6: H2M742N (antibody, V domains shown)
VH: B5 VH
VL: B5 VL
Regarding B6, the Kd in test [4] amounted to 0.295 nM; in [5], 6.17 nM; in [9], 0.61 nM. The T1/2 amounted to 38 min in [4], 28.5 min in [5] and 30.8 min in test [9]. Further, the Percent Blocking of Ang-2FD Binding to Tie-2 in test [6] came out at 99.6%; in test [7], 94.1%; in test [8] it was 98.6%.

B7: H1M724N (antibody, V domains shown)
VH: QVQLVESGGGVVQPGRSLRLSCAASGFTLSNYGMHWVRQAPGKGLEWVAVIWHDGSNTYYADSVKGRFTISRDNSKNTLYLQMNSLRAEDTAVYYCTREGLDFWSGYYPNWFDPWGQGTLVTVSS
VL: DIQMTQSPSSLSASVGDRVTITCRASQGIRNDLGWYQQKPGKAPKRLIYAASNLQGGVPSRFSGSGSGTEFTLTISSLQPEDFAAYYCLQHNIYPLTFGGGTKVEIK
On to B7, for which the values for the Kd in test [4], in test [5] and in test [9] were 0.179 nM, 0.73 nM and 0.694 nM, respectively. Further, the T1/2 was 42.7 min in test [4], 25.7 min in test [5] and 16 min in test [9]. The Percent Blocking of Ang-2FD Binding to Tie-2 in [6] is 99.5%; in test [7], 95.2%; in test [8], 96.6%.

B8: H1M732N (antibody, V domains shown)
VH: EVQLVESGGGLVRPGGSLRLSCAASGFTFTNAWMSWVRQAPGKGLEWIGQIKSKTDGGTIDYAAPVKGRFTVSRDDSENTLFLQMNSLKTEDTAVYYCAGNWNYVDFDYWGQGTLVTVSS
VL: B7 VL with G28D, N53S, A85T, I93S, L96F, G100P, E105D
Consider B8, for which the figures for the dissociation constant Kd in test [4], in [5] and in test [9] were 0.484 nM, 7.33 nM and 1.7 nM, respectively. In addition, the T1/2 was found to be 35.5 min in test [4], 24.1 min in test [5] and 21.4 min in test [9]. For the same molecule, the Percent Blocking of Ang-2FD Binding to Tie-2 was determined as 97.7% in test [6], 95.8% in [7] and 90.9% in [8].

B9: H1H732N (antibody, V domains shown)
VH: B8 VH
VL: B7 VL with G28D, N53S, A85T, I93S, L96F, G100P, E105D
In the case of B9, the dissociation constant Kd in [1] worked out at 0.386 nM; in [2], 0.439 nM; in test [3] it was 0.529 nM. For the same molecule, the figures for the T1/2 in test [1], in [2] and in test [3] were 57 min, 118 min and 51 min, respectively.

B10: H1M728N (antibody, V domains shown)
VH: EVQLVESGGDLVQPGGSLRLSCTASGFTFSKYWMTWVRQAPGRGLEWVANIKEDGNEKYFLDSVKGRFTISRDNAKDLLFLQMNSLRGEDTAVYYCVRDRGIEVAGPFDYWGQGTLVTVSS
VL: DIQMTQSPSTLSASVGDRVTVTCRASQTIINWLAWYQQKPGKAPKLLISKASSLESGVPSRFSGSGSGTEFTLTISSLQPDDFATYYCQQYNRYWTFGQGTMVEIK
B10: the Kd in test [4] was 0.137 nM; in test [5], 1.58 nM; in test [9], 5.65 nM. Also, the T1/2 was found to be 58.4 min in test [4], 69.5 min in test [5] and 9.9 min in [9]. The Percent Blocking of Ang-2FD Binding to Tie-2 in [6] is 98.5%; in [7], 97.1%; in test [8] it was 83.9%.

B11: H1H728N (antibody, V domains shown)
VH: B10 VH
VL: B10 VL
Regarding B11, the figures for the Kd in test [1], in [2] and in [3] were 0.162 nM, 2 nM and 5.76 nM, respectively. Further, the figures for the T1/2 in test [1], in test [2] and in [3] were 81 min, 77 min and 20 min, respectively.

B12: H1H730N (antibody, V domains shown)
VH: EVQLVESGGGLVQPGGSLRLSCAASGFAFRSYWMTWVRQAPGKGLEWVANIQQDGNDKYYVDSVKGRFTISRDNAKNSLYLQMNSLRAEDTAVYYCARDTGIAEAGPFDYWGQGTLVTVSS
VL: B10 VL with T20S, V21I, N31S, K45R, S49Y, S76N, M102K
Regarding B12, the Kd in [1] stood at 0.234 nM; in test [2], 3.4 nM; in [3] it was 0.0971 nM. The T1/2 in test [1] was found to be 62 min; in test [2], 87 min; in test [3] it was 90 min.

B13: H2M730N (antibody, V domains shown)
VH: B12 VH
VL: B10 VL with T20S, V21I, N31S, K45R, S49Y, S76N, M102K
On to B13, for which the Kd is 0.21 nM in test [4] and 0.842 nM in test [5]. Moreover, the T1/2 was determined as 47 min in test [4] and 36.6 min in test [5]. Moreover, the Percent Blocking of Ang-2FD Binding to Tie-2 in test [6] was 98.9%; in test [7], 97.3%; in [8], 55%.
